Data reported in the DeepSol protein solubility set.

Assay: soluble on expression in E. coli; label from the status in PepcDB or PDB records

Sequence	soluble on expression in E. coli
MADSAQDLAFTAENFESLLNEQLGESGGLEGSVLTGTVIGVSGDFAVVDVGLKSEGRVPLKEFSRGGDDAEIKIGDTVDVFVERYEDKDGLIVLSRDKARREEAWNELEKAFNDNQRVRGLIHSRVKGGFTVDLSGAIAFLPGSQVDIRPVRDIGPLLGQPQVFQILKMDRARGNIVVSRRAVLEETRAEERSKLMETLREGEILEGVVKNITDYGAFVDLGGVDGLLHVTDISWKRINHPTEALSIGQTVKVQVIRFNAETQRISLGMKQLEADPWEGVAAKYPVGTKFVGRVTNITDYGAFVELEPGVEGLVHVSEMSWTKKNVHPGKIVSTSQEVEVMILDVDPDKRRISLGLKQTMANPWSEFLEGHPIGTEVEGEIKNITEFGLFIGLTGDIDGMIHLSDLDWNRSGDEAVKDYKKGDVVQAKVLDVDVEKERISLGVKQLGEDPYREATADLRKNQIVTCVITMVQENGIEVDVNGAIGFIRKSDLARERADQRPERFAVGEKVDAKVINMDKSNRRMTLSIKAREMDEEKQAMAEYGSADSGASLGDILGAALKQAQEKARTGDDELEHHHHHH	not soluble
PDITATPAWDALARHHDQIGNTHLRQFFADDPGRGRELTVSVGDLYIDYSKHRVTRETLALLIDLARTAHLEERRDQMFAGVHINTSEDRAVLHTALRLPRDAELVVDGQDVVTDVHAVLDAMGAFTDRLRSGEWTGATGKRISTVVNIGIGGSDLGPVMVYQALRHYADAGISARFVSNVDPADLIATLADLDPATTLFIVASKTFSTLETLTNATAARRWLTDALGDAAVSRHFVAVSTNKRLVDDFGINTDNMFGFWDWVGGRYSVDSAIGLSLMTVIGRDAFADFLAGFHIIDRHFATAPLESNAPVLLGLIGLWYSNFFGAQSRTVLPYSNDLSRFPAYLQQLTMESNGKSTRADGSPVSADTGEIFWGEPGTNGQHAFYQLLHQGTRLVPADFIGFAQPLDDLPTAEGTGSMHDLLMSNFFAQTQVLAFGKTAEEIAADGTPAHVVAHKVMPGNRPSTSILASRLTPSVLGQLIALYEHQVFTEGVVWGIDSFDQWGVELGKTQAKALLPVITGAGSPPPQSDSSTDGLVRRYRTERGRAGLE	soluble
MSKATFDPTRYNKSNNEPFNQVLDKHLSRRNFVKSGLGLGAMTAFAGMGLTGCGSDSSSSPIPVDPVPPLPPTKSSAKLNFTSVKGARLNAVVVPEGYSAQVLAPWGTPLNAKAAPWKADGSNTADDQANSVGMHHDGMHFFPLNQAGDDGLLCINHEYIDEIALHPNGPTVDATTGLRTIVDEVRKEINAHGVSVVRIKLTNNQWEVVYNDKHNRRFTGATVMDIAGPLAYSPLLETRYSPDGSQARGTLNNCGNGYTPWGTYLTCEENWPEYFVNRSTLTRDQIRIGISKTSSRYGWDDLAGQDEERLDEFSRFDVTPKGVSARDDYRNEANGHGYIVEIDPYNPTSRAIKRTALGRFRHEGCTFGKLSEGQPVVFYSGHDARFEYLYKFVSAAPWNPQDANSSNRLEIGDKYMNEGTLYAAKFNENGVGAWLPLTLDSQTTDGKTLGNSFASLADIILNTAGAADLLGATPMDRPEWCAVDPFTGSVYLTLTNNSKRTEANPANPRLKNNFGHIIRWDEADKETEFTWDIFVFGSPSDGNAETNLSGLTDLNQFASPDGLAFDKRGILWVQTDNGAEEVAEETNDQMLAIVPSTLLDSANKQTSVTAKNQMELKRFFVGPNDCEVTGFAISPDYKTVFANIQHPGNWPYSNNAAEVTPTGVVLRPRAATVVIRKLDGKEVAVLEHHHHHH	not soluble
GPGSMSLTTTARTPATVGKLSPSSGIFSIPDNISPVTAEEVPKSRDSLLTDMSLSELSRQSVLQSEPVVLRLCHVGKSYPIAGSDERVVALKDITLAESKHSNAATTKQGASTTNCLQRSNLPPPFAPVRRGEFVMIRGPSGGGKTTLLNIIGSIDSCTEGNIELNGRIIDKDTKESVLADIRLKNIGFVFQTFNLIATMTAAENVELPMTLLGTMSTKAMRLRSRQLLTLVGLRNRINHLPSELSGGEQQRVTIARSLANNPSILLLDEPTGDLDTANTIEVMDLLMRINRRTKTTCIMVTHNPDIECYADRILYVSDGRFAKEVFNALPMCLDLENYTEYLAAKERAITGFAGVGDVEDDSEPRATAAMAECIGTKGCEIEKPNSSPVLMEPLTEGQSACSIVSPAASRSAVVQPLCPPAAATAPSVNGVTQTVLDTTHHGSASVPPASASSALLQREEREVPNGL	soluble
MVPPNDEIEDGFYLIDDSNHDEDLDFSDFPWLDPDHPLFFPATQANNSKGSTRWDAVNKFSVENWYPHLRKHTFKSHFITLNYNDIHYLMGNIPPDYDSSKLESIFNKILSEFNNKEVFMRLSTRSPKDSKFLFEEASTIMSKDFVYWNENDNKHQQLVSFVASMLKAMKIKSGRKIIETIAQSPRVYNDLLALVSSSNQSDCTTNVILREWHDIRPDHEFRVFVSRRHRKESIVTAISQYFHFLYFDKSPADCFNFLDEEDKKAVIKKFENYVLKSVDPDVAKFLNFSSEQDDDESSDCIREYIVDLALIPVSQYHGEITDENIIEIGANTYVMVVIELNPFAPAATGSGLFNWKNDLEHHHHHH	soluble
MKFTWIALPGVLLLSACSSSQPNAPRPPRIGMPNPAAVYCEQQGGTLMPVQTPQGVRSDCKLPNGEIIDEWTLWRREHPDTKK	not soluble
MAHHHHHHMDCNTGMQLGQQFSKDVTMMHGGVPMSGAMSEQDALMVSAQVGGASPMMAAQWAQNFQQQQAMQAMRQQHEMEQAFQNSQQQQHAAVAQSGQMLGMAGPQQQQFMVQQQQQASMMNAAMMSQGMMTANMGFGMMMPRTQYQPLPNLSVLQPNQQQQQQQQLVNLAPAVQDSAWADQLSQQQWSTDYSQVQTFSAPGMEDKTVEERIKDSEFYKFMDQVKNKEVLIDEEKGELVQGPGPEVGVPEDAEYLRHWAEMEGLNMPEGVFQPPPPASAMMTPENGDPDTYIKEMDMAENDVEDWAQEYAEMQERLQKVTNNTDYPFEPNNPYMFHDFPFDEGMEMLQLGNLAEAALAFEAVCHKDSSNEKAWQILGTTQAENEKDGLAIIALNNARKLNIRNLEVHAALSVSHTNERNADAAMDSLKAWLVNHPEYEQLASVSIPPDAELDVQETFFFADPSRMREARTLYEAAIEMNPSDSQLFTNLGVLHNVAHEFDEAAECFRKAVALHPDDPKMWNKLGATLANGGHPDQALEAYNRALDINPGYVRAMYNMAVAYSNMSQYNMAARQIVKAIASQQGGTKPSGEGSIMATRNMWDLLRMTLNLMDRDDLVQLTYNEQLEPFVKEFGLEGHV	not soluble
MRRAFLVNSDKCIGCRGCAMACKSFNQLEPDRFWRYVYPLDKDIYPHEERAFYSLACNHCEHPACVAACPVEAYTKREDGVVVHNPERCIGCKNCIRNCPYGAPRFNEETRKAEKCSMCYERLDIGMNPACVNACPVGALSIIDLDADPVPDNAVQYPPGFPHMPQLNPGTRFILARQPKQPEDK	not soluble
MANLGETLKQLRKQRRWTQEQLAEQLNVSRSQISKWENGSLLPDVQSLEKLCQLFNISADFLLGGETRQRELLREVTDMYGTADVHETVLAALDYLLHNQEMSEAMYALAKLPDKKRKHVETMIMTIVKECSELI	not soluble
MTKLTIFYDGTCPLCAKEMKALRQHDHKQEINTVDIYSDAFSAYPQINPDRANTILHALDNQGNLLLGLDVTYRAWQLVGRGWLYAPLRWPLIRPVADWLYLRFAQNRYRISYWLTGTSRCNSGRCSRLEHHHHHH	soluble
SLAATGNASKPSLNSFYADGLGQLRNGLFSCFQPVFGYFGTKTTVEIEKSEDELWEIPFDAISELEWLGSGSQGAVFRGQLENRTVAVKKVNQLKETEIKHLRHLRHQNIIEFLGVCSKSPCYCIVMEYCSKGQLCTVLKSRNTITRELFAQWVKEIADGMHYLHQNKVIHRDLKSPNILISAEDSIKICDFGTSHMQKKMDSTMMSFCGTVSWMAPEMIKKQPCNEKVDVYSFGVVLWEMLTRETPYANIAQMAIIFGVGTNILSLPMPEEAPKGLVLLIKQCLSQKGRNRPSFSHIRQHWEIFKPELFEMTEEEWQLAWDSYREFAKCIQYPSTVTRDHGGPKSAFAMEEEIQRKRHEQLNHIKDIRNMYEMKLKRTNKMYDKLQGCFTELKLKESELAEWEKDLTER	soluble
MMNYRKADMKDISLLVSIRKRQLIDEGIEPNIDIDKELTRYFNNKLANNLLVEWIAEENNQIIATAAIAFIDFPPTYTNKTGRKGYITNMYTEPTSRGNGIATGMLDRLVNEAKERNIHKICLVASKLGRPVYKKYGFQDTDEWLELNLLEHHHHHH	soluble
MGSDKIHHHHHHMLHNTNQPQISRQMNELEAQCGGRLFNRTGRGVELTDLGQHLLPKIRSWLNVTDQLNNEILHSTDTPIGTVRIASLPSTAHPLLSTLYKVLQEKYPLIKLSVREGQGVHLEKWLEDGSVDLAILYRFNPTPKQGDIYLTQADTYLVGCEGDALTQASEVDFKAINQLPLVTFCRPSNWRNFLDHMAYENGVELNIVFEADSISLQTHLVSESRMYTMLGPQALKKASQYTSIQAAKIINPALKRYISLSISKHGYLTPACKAVMEEIRNLADLL	not soluble
GPGSMGVALTHGLQRQRQQRTAAGHRSANRRGKRGLPPSLLGRLCMFVFVWMHLAEERERRECRLQGKKVFLEESSAGSSRSCMRRRHVCGVRACAGRRGCFASSVISLRCWTSSQSAVVAALTRLRVSSFSAPHLFRLARSAAPTREAASTKYFIDSLAAHSSRLIGVRAPLAHTHVHLGDCIDSTTSACVCGEEIHHHRAQPGVTVSLCTPFSLSHTPSTAWAPLLPADKHHMQASPVLAGAAVRRTATASVGSEPRTNLPFLINVVKKAQKSANTVVASTPALSSMSSTKEPPIQAAAFKPYPLLSPGEVKQAAGSSLLYKDDVCVLVNDAFPKSMVHCLVMPLDLRLQSLNALTKKDAPLLRHMLHVGDEYVRYLKTAVPHTYTARRFIAGFHALPSLPMLHMHVLSTDLDSPCLKNKKHYNSFATFFFLTGDRVLDDLERHGRVTLNQDVTRLRQMEEQDMKCLWCGTALPSVPAMKSHIQCCPQNKAVEKSS	not soluble
MAHHHHHHMSPVLVPTACEDWSLNIDDESAKRFWWNNTYSITLWEETLNIEQQAEKITDGDVWSKFIDLQLRCAFKICSICHSPEGNADMKICCYCGNTVHENCSEPAAPEQIMWKPANLAYVEHMRACFQCQAVNYKEPL	not soluble
MPKETPSKAAADALSDLEIKDSKSNLNKELETLREENRVKSDMLKEKLSKDAENHKAYLKSHQVHRHKLKEMEKEEPLLNEDKERTVLFPIKYHEIWQAYKRAEASFWTAEEIDLSKDIHDWNNRMNENERFFISRVLAFFAASDGIVNENLVENFSTEVQIPEAKSFYGFQIMIENIHSETYSLLIDTYIKDPKESEFLFNAIHTIPEIGEKAEWALRWIQDADALFGERLVAFASIEGVFFSGSFASIFWLKKRGMMPGLTFSNELICRDEGLHTDFACLLFAHLKNKPDPAIVEKIVTEAVEIEQRYFLDALPVALLGMNADLMNQYVEFVADRLLVAFGNKKYYKVENPFDFMENISLAGKTNFFEKRVSDYQKAGVMSKSTKQEAGAFTFNEDF	soluble
MTPEAAYQNLLEFQRETAYLASLGALAAWDQRTMIPKKGHEHRARQMAALARLLHQRMTDPRIGEWLEKVEGSPLVQDPLSDAAVNVREWRQAYERARAIPERLAVELAQAESEAESFWEEARPRDDWRGFLPYLKRVYALTKEKAEVLFALPPAPGDPPYGELYDALLDGYEPGMRARELLPLFAELKEGLKGLLDRILGSGKRPDTSILHRPYPVEAQRRFALELLSACGYDLEAGRLDPTAHPFEIAIGPGDVRITTRYYEDFFNAGIFGTLHEMGHALYEQGLPKEHWGTPRGDAVSLGVHESQSRTWENLVGRSLGFWERFFPRAREVFASLGDVSLEDFHFAVNAVEPSLIRVEADEVTYNLHILVRLELELALFRGELSPEDLPEAWAEKYRDHLGVAPKDYKDGVMQDVHWAGGLFGYFPTYTLGNLYAAQFFQKAEAELGPLEPRFARGEFQPFLDWTRARIHAEGSRFRPRVLVERVTGEAPSARPFLAYLEKKYAALYG	soluble
